Measured values reported in PMC4468156, “Essential Role for an M17 Leucine Aminopeptidase in Encystation of Acanthamoeba castellanii” (PLoS ONE, 2015).
One block for each molecule: values may come before it.

Legend:
[1] = biological target: T1, AcLAPr (recombinant AcLAP, M17 leucine aminopeptidase) (Acanthamoeba castellanii, UniProt A0A060A630); assay: inhibition of Leu-AMC hydrolysis, fluorometric; format: biochemical
T1 construct: gene LAP; pCold TF vector, E. coli BL21 (pKJE7), Ni-NTA; N-terminal His6-trigger factor tag removed with thrombin
T1 sequence (A0A060A630 1-579): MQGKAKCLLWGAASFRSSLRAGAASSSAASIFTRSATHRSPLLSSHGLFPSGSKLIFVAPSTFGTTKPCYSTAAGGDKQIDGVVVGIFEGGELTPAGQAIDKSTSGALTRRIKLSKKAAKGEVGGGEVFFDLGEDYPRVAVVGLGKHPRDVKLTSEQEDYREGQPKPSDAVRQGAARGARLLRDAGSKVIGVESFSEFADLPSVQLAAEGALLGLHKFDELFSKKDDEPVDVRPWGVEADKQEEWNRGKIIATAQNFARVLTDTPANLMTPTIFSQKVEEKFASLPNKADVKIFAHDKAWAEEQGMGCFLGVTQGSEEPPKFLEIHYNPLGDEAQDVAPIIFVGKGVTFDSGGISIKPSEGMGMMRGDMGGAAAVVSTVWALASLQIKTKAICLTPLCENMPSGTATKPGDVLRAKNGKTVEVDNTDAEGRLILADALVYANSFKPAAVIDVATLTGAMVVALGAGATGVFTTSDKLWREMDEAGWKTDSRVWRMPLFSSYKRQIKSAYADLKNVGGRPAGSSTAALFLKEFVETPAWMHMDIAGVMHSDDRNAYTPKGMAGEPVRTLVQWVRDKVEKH
Description: inhibition of Leu-AMC hydrolysis, fluorometric on AcLAPr (recombinant AcLAP, M17 leucine aminopeptidase)

[2] = substrate: CSCC[C@H](N)C(=O)Nc1ccc2c(C)cc(=O)oc2c1; assay: purified protein; format: biochemical, Acanthamoeba castellanii; details: 50 mM Tris-HCl, 1 mM MnCl2, pH 8.0, 37°C, 25 nM enzyme
[3] = substrate: Cc1cc(=O)oc2cc(NC(=O)[C@@H](N)CCCNC(=N)N)ccc12; assay: purified protein; format: biochemical, Acanthamoeba castellanii; details: 50 mM Tris-HCl, 1 mM MnCl2, pH 8.0, 37°C, 25 nM enzyme
[4] = substrate: Cc1cc(=O)oc2cc(NC(=O)[C@@H](N)CC(C)C)ccc12; assay: purified protein; format: biochemical, Acanthamoeba castellanii; details: 50 mM Tris-HCl, 1 mM MnCl2, pH 8.0, 37°C, 25 nM enzyme

activity at 10 µM [1]: 22.5 ± 1.13%
Molecule: CC(C)C[C@H](NC(=O)[C@@H](O)[C@H](N)Cc1ccccc1)C(=O)O [bestatin]

B1: AcLAPr (recombinant AcLAP, M17 leucine aminopeptidase) (Acanthamoeba castellanii) (protein)
chain: T1 sequence (A0A060A630 1-579)
notes: pCold TF vector, E. coli BL21 (pKJE7), Ni-NTA; N-terminal His6-trigger factor tag removed with thrombin
Km [2]: 3.77 ± 0.46 µM
Km [3]: 41.37 ± 0.05 µM
Km [4]: 13.51 ± 1.31 µM
